This note sets out measurements from paper PMC7054047 (The FEBS journal, 2019).

To fix the notation:
B1: WSCP M4FJ52 from Chinese cabbage (Brassica rapa subsp. Pekinensis) (natural protein)
chain: not shown
B2: WSCP from Arabidopsis thaliana (natural protein, UniProt Q9C7S6 24-215, looked up)
chain: NEPVKDTAGNPLNTREQYFIQPVKTESKNGGGLVPAAITVLPFCPLGITQTLLPYQPGLPVSFVLALGVGSTVMTSSAVNIEFKSNIWPFCKEFSKFWEVDDSSSAPKEPSILIGGKMGDRNSSFKIEKAGEGARANVYKLTTFYGTVGAIPGVWLSAPQLIITKDTAKTLLVKFKKVDDATTATSNLYFPG
B3: WSCP A0A087HRG5 from Arabis alpina (natural protein)
chain: not shown

The series concerns the molecule itself. Kind of series: SEC. (SEC sorts molecules by how far they enter the pores of the column.)
Usually stoichiometry N stands for the number of molecules, sites or subunits per partner or assembly. Regarding B1, the “stoichiometry N” value was 4.
As for B2, the figure is 4; as for B3, 4.
